1 substance from article doi:10.1101/2022.05.05.490751 can be followed below.

pKd: −log10 of the molar value.

Common to all, as to assay: SPR
Test [1] has as its target NYE 4E5E8E peptide on HLA-A*02:01.
Test [2] deals with NYE 3Y peptide on HLA-A*02:01.
For test [3], the target named is NYE 6T peptide on HLA-A*02:01.
Test [4] addresses NYE 6V peptide on HLA-A*02:01.
For test [5], the target named is NYE 9V peptide (NYE-ESO157-165, heteroclitic 9V variant) on HLA-A*02:01.
Test [6] addresses NYE 4D peptide on HLA-A*02:01.
The target in test [7] is NYE 3A peptide on HLA-A*02:01.

Turning to Soluble 1G4 TCR, the pKd in test [1] is 4.74; in test [2] it was 4.26; in test [3], 3.79; in test [4] it was 4.77; in test [5], 5.10; in test [6] it was 3.86. For the same substance, the pKd in test [7] is 5.15.
